Measured values: patent US20080090771A1, “ABUSE-RESISTANT H[…], COMPOSITIONS AND METHODS OF USING THE SAME” (SHIRE LLC, priority 2006, published 2008)
No end group written: not given here.

How the values were obtained:
[1] = Oral bioavailability of hydrocodone conjugates in rats; details: for bioavailability (% HC) oral AUC / bioavailability (% HC) oral Cmax: rats, relative to hydrocodone; for Oral:IN Index AUC: ratio of oral to intranasal AUC (% HC); for Oral:IN Index Cmax: ratio of oral to intranasal Cmax (% HC)
[2] = Intranasal bioavailability of hydrocodone conjugates in rats; details: relative to hydrocodone

Row | Substance | bioavailability (% HC) oral AUC [1] | bioavailability (% HC) oral Cmax [1] | Oral:IN Index AUC [1] | Oral:IN Index Cmax [1] | bioavailability (% HC) IN AUC [2] | bioavailability (% HC) IN Cmax [2]
1 | Lys-Lys-Asp-Asp-Ile-HC (KKDDI-hydrocodone) | 90 % HC | 121 % HC | 2.31 | 2.16 | 39 % HC | 56 % HC
2 | Pro-Pro-Leu-HC | 94 % HC | 108 % HC | 2.04 | 2.25 | 46 % HC | 48 % HC
3 | Leu-Pro-Phe-HC | 106 % HC | 125 % HC | 1.28 | 1.24 | 83 % HC | 101 % HC
4 | Asp-Asp-Asp-Asp-Ile-HC (DDDDI-hydrocodone) | 79 % HC | 110 % HC | 2.19 | 1.72 | 36 % HC | 64 % HC
5 | Asp-Asp-Ile-HC | 280 % HC | 238 % HC | 4.75 | 2.56 | 59 % HC | 93 % HC
6 | Gly-Gly-Pro-Pro-Ile-HC (GGPPI-hydrocodone) | 94 % HC | 121 % HC | 2.14 | 2.16 | 44 % HC | 56 % HC
7 | Tyr-Tyr-Phe-Phe-Ile-HC | 113 % HC | 63 % HC | 4.35 | 1.85 | 26 % HC | 34 % HC
8 | Glu-Glu-Asp-Asp-Ile-HC (EEDDI-hydrocodone) | 108 % HC | 129 % HC | 2.04 | 1.59 | 53 % HC | 81 % HC
9 | Lys-Lys-Ile-HC | 80 % HC | 76 % HC | 1.18 | 0.81 | 68 % HC | 94 % HC
10 | Asp-Asp-Gly-Gly-Ile-HC (DDGGI-hydrocodone) | 82 % HC | 80 % HC | 1.71 | 1.19 | 48 % HC | 67 % HC
11 | Pro-Ile-Ile-HC | 104 % HC | 99 % HC | 1.21 | 0.97 | 86 % HC | 102 % HC
12 | Asp-Asp-Pro-Pro-Ile-HC (DDPPI-hydrocodone) | 92 % HC | 95 % HC | 2.04 | 1.19 | 45 % HC | 80 % HC
13 | Tyr-Tyr-Pro-Pro-Ile-HC (YYPPI-hydrocodone) | 218 % HC | 213 % HC |  |  | 10 % HC | 10 % HC
14 | Asp-Asp-Phe-Phe-Ile-HC (DDFFI-hydrocodone) | 115 % HC | 167 % HC | 2.05 | 2.69 | 56 % HC | 62 % HC
15 | Glu-Glu-Ile-HC | 83 % HC | 112 % HC | 1.60 | 1.90 | 52 % HC | 59 % HC
16 | Tyr-Tyr-Ile-HC | 145 % HC | 234 % HC | 7.25 | 6.88 | 20 % HC | 34 % HC
17 | Lys-Lys-Pro-Pro-Ile-HC (KKPPI-hydrocodone) | 80 % HC | 76 % HC | 1.18 | 0.81 | 68 % HC | 94 % HC
18 | Glu-Glu-Phe-Phe-Ile-HC (EEFFI-hydrocodone) | 96 % HC | 129 % HC | 1.41 | 1.70 | 68 % HC | 76 % HC
19 | Glu-Glu-Phe-Phe-Phe-Hydrocodone (EEFFF-hydrocodone) [Glu-Glu-Phe-Phe-Phe-HC] | 83 % HC | 89 % HC | 3.07 | 1.89 | 27 % HC | 47 % HC
20 | Glu-Glu-Gly-Gly-Phe-HC (EEGGF-hydrocodone) | 110 % HC | 112 % HC | 1.24 | 1.15 | 89 % HC | 97 % HC
21 | Glu-Glu-Gly-Gly-Ile-Hydrocodone (EEGGI-hydrocodone) [Glu-Glu-Gly-Gly-Ile-HC] | 81 % HC | 77 % HC |  |  | 50 % HC | 56 % HC
22 | Gly-Gly-Glu-Glu-Ile-HC (GGEEI-hydrocodone) | 96 % HC | 119 % HC | 1.45 | 1.55 | 66 % HC | 77 % HC
23 | Pro-Leu-Ile-HC | 141 % HC | 172 % HC | 1.62 | 1.70 | 87 % HC | 101 % HC
